Reference: PMC4822050, “Hemi-methylated DNA opens a closed conformation of UHRF1 to facilitate its histone recognition” (Nature Communications, 2016)

How the values were obtained:
Conditions in all cases: both partners purified
[1] = biological target: T1, UHRF1^Δ627–674 (human, UniProt Q96T88 1-793, Δ627–674); assay: pull-down; GST pull-down: 15 μg GST-tagged protein with 40 μg recombinant protein in 500 μl 20 mM HEPES-NaOH pH 8.0, 100 mM NaCl, 5% glycerol, 0.1% Triton X-100, 4 °C, glutathione resin, Coomassie staining; some panels with increasing hm-DNA
T1 construct: also called spacer deletion mutant
T1 sequence (looked up): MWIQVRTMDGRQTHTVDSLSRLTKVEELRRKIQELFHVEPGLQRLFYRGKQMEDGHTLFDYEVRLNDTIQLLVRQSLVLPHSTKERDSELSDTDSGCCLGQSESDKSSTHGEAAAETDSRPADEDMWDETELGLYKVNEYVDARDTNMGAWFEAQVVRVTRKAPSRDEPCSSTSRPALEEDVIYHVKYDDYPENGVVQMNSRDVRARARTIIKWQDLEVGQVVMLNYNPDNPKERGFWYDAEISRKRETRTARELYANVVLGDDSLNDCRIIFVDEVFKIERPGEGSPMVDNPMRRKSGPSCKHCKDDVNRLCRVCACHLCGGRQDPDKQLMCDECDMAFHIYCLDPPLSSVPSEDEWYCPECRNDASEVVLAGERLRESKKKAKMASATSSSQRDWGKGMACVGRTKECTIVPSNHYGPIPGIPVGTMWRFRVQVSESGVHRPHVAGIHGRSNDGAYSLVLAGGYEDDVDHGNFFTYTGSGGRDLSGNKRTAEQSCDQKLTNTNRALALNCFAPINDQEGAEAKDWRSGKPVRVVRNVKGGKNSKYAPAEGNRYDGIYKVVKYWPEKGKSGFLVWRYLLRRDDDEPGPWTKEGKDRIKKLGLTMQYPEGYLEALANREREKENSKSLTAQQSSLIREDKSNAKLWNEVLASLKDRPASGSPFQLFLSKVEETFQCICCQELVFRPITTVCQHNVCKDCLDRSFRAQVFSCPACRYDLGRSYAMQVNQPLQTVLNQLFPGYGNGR

[2] = biological target: T2, PHD of UHRF1 (residues 307–366) (human, UniProt Q96T88 307-366); assay: ITC; 0.05 mM protein in the cell, 0.5 mM protein or peptide in the syringe, iTC200, 18 °C, 10 mM HEPES pH 8.0, 100 mM NaCl
T2 construct: human UHRF1, PHD, residues 307–366; also called plant homeodomain; the isolated PHD
T2 sequence (looked up): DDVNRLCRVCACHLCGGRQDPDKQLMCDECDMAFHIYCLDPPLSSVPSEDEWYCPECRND

[3] = biological target: T3, full-length UHRF1 (residues 1–793) (human, UniProt Q96T88 1-793); assay: as above
T3 construct: human UHRF1, residues 1–793; monomer by gel filtration; also called wild-type UHRF1; ICBP90
T3 sequence (looked up): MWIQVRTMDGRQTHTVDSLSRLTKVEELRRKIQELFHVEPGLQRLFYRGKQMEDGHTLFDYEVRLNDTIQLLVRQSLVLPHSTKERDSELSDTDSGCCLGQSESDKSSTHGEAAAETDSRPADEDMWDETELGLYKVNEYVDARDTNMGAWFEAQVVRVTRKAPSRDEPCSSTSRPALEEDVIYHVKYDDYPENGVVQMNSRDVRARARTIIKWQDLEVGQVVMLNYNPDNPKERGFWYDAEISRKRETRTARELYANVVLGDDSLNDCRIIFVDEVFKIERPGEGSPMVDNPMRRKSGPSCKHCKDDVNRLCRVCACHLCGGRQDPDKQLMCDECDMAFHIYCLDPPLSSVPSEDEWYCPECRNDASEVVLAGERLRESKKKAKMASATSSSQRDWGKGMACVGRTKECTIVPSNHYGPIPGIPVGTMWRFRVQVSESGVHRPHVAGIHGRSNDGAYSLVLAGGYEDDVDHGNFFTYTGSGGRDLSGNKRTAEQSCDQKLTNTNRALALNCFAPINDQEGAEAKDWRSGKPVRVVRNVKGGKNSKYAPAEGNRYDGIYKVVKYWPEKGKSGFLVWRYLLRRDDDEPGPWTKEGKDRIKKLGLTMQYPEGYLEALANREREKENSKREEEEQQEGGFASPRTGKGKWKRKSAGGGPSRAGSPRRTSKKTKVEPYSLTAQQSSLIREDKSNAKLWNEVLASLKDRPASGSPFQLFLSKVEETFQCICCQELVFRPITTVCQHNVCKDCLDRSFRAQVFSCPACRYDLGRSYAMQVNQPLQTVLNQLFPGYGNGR

B1: GST-tagged Spacer of UHRF1 (domain or fragment, human, UniProt Q96T88 587-674, looked up)
chain: PGPWTKEGKDRIKKLGLTMQYPEGYLEALANREREKENSKREEEEQQEGGFASPRTGKGKWKRKSAGGGPSRAGSPRRTSKKTKVEPY
notes: also called GST-Spacer
[1]
  binding result: binds

B2: H3 peptide (1–17) (peptide, UniProt P68431 2-18, looked up)
peptide: ARTKQTARKSTGGKAPR
notes: histone H3, residues 1–17; also called H3K9me0; unmethylated histone H3
[2]
  fold higher binding affinity than with full-length UHRF1: ~34 fold
[3]
  Kd: 26 µM
